Results as given in publication PMC9845149, “Interplay between C1-inhibitor and group IIA secreted phospholipase A2 impairs their respective function” (Immunologic Research, 2022).

Biological target: T1, human plasma-derived C1-esterase inhibitor (human, UniProt P05155 23-500)
T1 construct: Glycoprotein from plasma; also called pdC1-INH; C1-INH; source: bought: Cinryze, Takeda Pharmaceutical Company (human plasma-derived); also in plasma of healthy donors (functional assay)
T1 sequence (looked up): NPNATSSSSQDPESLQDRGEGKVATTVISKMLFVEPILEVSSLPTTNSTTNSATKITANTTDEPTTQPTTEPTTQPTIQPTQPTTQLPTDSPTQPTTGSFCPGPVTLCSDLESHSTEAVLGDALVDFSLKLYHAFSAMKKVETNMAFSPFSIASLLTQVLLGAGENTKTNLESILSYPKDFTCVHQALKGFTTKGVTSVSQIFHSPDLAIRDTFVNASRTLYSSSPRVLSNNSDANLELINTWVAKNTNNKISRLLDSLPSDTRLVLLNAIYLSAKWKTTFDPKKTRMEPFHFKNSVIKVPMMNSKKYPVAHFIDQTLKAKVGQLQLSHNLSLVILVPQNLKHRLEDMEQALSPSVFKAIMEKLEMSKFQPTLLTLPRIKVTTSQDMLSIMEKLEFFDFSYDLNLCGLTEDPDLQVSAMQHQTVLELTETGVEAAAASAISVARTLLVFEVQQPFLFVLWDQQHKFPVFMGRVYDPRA
Experiment: SPR; Biacore 3000; hGIIA N1A immobilised at 800 RU on a CM5 chip (EDC/NHS), BSA as reference channel; C1-INH injected at 10, 20, 30, 40, 50 µM in HBS (10 mM Hepes, pH 7.4, 150 mM NaCl, 3 mM EDTA), 30 µL/min; 1:1 Langmuir model
Conditions: both partners purified

B1: Recombinant human group IIA secreted phospholipase A2, N1A catalytically active mutant (enzyme, UniProt P14555 21-144, looked up)
chain: ALVNFHRMIKLTTGKEAALSYGFYGCHCGVGGRGSPKDATDRCCVTHDCCYKRLEKRGCGTKFLSYKFSNSGSRITCAKQDSCRSQLCECDKAAATCFARNKTTYNKKYQYYSNKHCRGSTPRC
notes: human group IIA secreted phospholipase A2 (hGIIA), UniProt P14555; N1A mutation facilitates the removal of the initiator methionine; PDB 1DCY chain A covers aa 1-124; also called hGIIA; hGIIA N1A
Kd: 6.7 µM | koff: 0.0125 s⁻¹
